From patent US20030185792A1, “Morphogen analogs of bone morphogenic proteins” (Curis, Inc., priority 1996, published 2003)
One block for each binder: values may come before it. Bridge positions count the residues as written; N and C are the ends. Ends that are not written are not given here.

Legend:
[1] = biological target: OP-1 receptor of ROS cells (OP-1 receptor-enriched plasma membrane fraction of ROS cells) (rat)
[2] = biological target: OP-1 receptor of ROS cells (OP-1 receptor-enriched plasma membrane fraction of ROS cells) (rat); test: radioligand receptor assay, ROS cell plasma membranes
[3] = biological target: OP-1 receptor of ROS cells (OP-1 receptor-enriched plasma membrane fraction of ROS cells) (rat); remark: listed apart in the source
[4] = biological target: OP-1 receptor of ROS cells (OP-1 receptor-enriched plasma membrane fraction of ROS cells) (rat); remark: listed apart in the source
[5] = biological target: OP-1 receptor of ROS cells (OP-1 receptor-enriched plasma membrane fraction of ROS cells) (rat); test: displacement of ^125I-soluble OP-1 from ROS cell plasma membranes
[6] = biological target: OP-1 receptor of ROS cells (OP-1 receptor-enriched plasma membrane fraction of ROS cells) (rat); remark: listed apart in the source
[7] = biological target: OP-1 receptor of ROS cells (OP-1 receptor-enriched plasma membrane fraction of ROS cells) (rat); remark: listed apart in the source
[8] = biological target: OP-1 receptor of ROS cells (OP-1 receptor-enriched plasma membrane fraction of ROS cells) (rat); remark: listed apart in the source

IC50 (peptide concentration giving 50% inhibition of cellular responsiveness to OP-1), ROS cell alkaline phosphatase [1]: 5 µM
concentration at which the binding of ^125I-labeled OP-1 to the receptor was potentiated [2]: 8 µM
B1: Peptide H-C2 (peptide)
peptide: CCFINPETVCC
modifications: disulfide (positions not given here); not fully specified (bridges); also: double disulfide bonds, pairing of the four Cys not given here

alkaline phosphatase activity of ROS cells, increase relative to soluble OP-1 alone [3]: 20%
OP-1 induced cellular alkaline phosphatase activity of ROS cells, potentiation [4]: 20%
ED50 [2]: 1 µM
ED50 [5]: 1 µM
Binder: CYFDDSSNVIC (disulfide 1-11) [Peptide F2-2]

alkaline phosphatase activity of ROS cells, increase relative to soluble OP-1 alone [3]: 20%
OP-1 induced cellular alkaline phosphatase activity of ROS cells, % increase in OP-1 response relative to the absence of peptide [6]: 53%
ED50 [2]: 10 µM
ED50 [5]: 5 µM
Binder: CYFDDSSNVICKKYRS (disulfide 1-11) [Peptide F2-3]

IC50 (peptide concentration giving 50% inhibition of the cell response to OP-1), ROS cell alkaline phosphatase [7]: 10 µM
concentration required to inhibit the binding of ^125I-labeled OP-1 [2]: 179 µM
Binder: CFRDLGWQDWIIAPC (disulfide 1-15) [Peptide F1-2]

IC50 (peptide concentration inhibiting the OP-1 induced cell response by 50%), ROS cell alkaline phosphatase [8]: 8 µM
Binder: CLNAISVLYFDDSSNVILKKYRNMVVRC (disulfide 1-28 (inferred)) [Peptide F2-1]
